The text below walks through data of publication PMC4437705 (Nature, 2013).

The data set “crystal structure” deals with the molecule itself. The experiment in a line: crystal structure.
Data set [1] concerns the target T1, apo-FabA (E. coli fatty acid 3-hydroxyacyl-ACP dehydratase, unlabeled, not crosslinked) (E. coli, UniProt P0A6Q3 2-172).
T1 sequence: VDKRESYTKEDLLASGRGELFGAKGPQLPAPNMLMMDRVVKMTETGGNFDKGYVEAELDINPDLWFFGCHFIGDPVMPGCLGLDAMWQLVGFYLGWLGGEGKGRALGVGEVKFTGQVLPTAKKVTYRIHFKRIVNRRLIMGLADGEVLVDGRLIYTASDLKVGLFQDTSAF
The experiment in a line: NMR titration.

B1: FabA (E. coli fatty acid 3-hydroxyacyl-ACP dehydratase) as in the crosslinked AcpP=FabA complex (enzyme)
chain: VDKRESYTKEDLLASGRGELFGAKGPQLPAPNMLMMDRVVKMTETGGNFDKGYVEAELDINPDLWFFGCHFIGDPVMPGCLGLDAMWQLVGFYLGWLGGEGKGRALGVGEVKFTGQVLPTAKKVTYRIHFKRIVNRRLIMGLADGEVLVDGRLIYTASDLKVGLFQDTSAF
modifications: H70 covalently connected through probe 1 to S36 of AcpP
Regarding B1, the “stoichiometry N” value in the data set “crystal structure” turned out to be 2.

B2: holo-AcpP (E. coli acyl carrier protein with 4'-phosphopantetheine) (natural protein)
chain: STIEERVKKIIGEQLGVKQEEVTNNASFVEDLGADSLDTVELVMALEEEFDTEIPDEEAEKITTVQAAIDYINGHQA
modifications: 4'-phosphopantetheine (PPant) on S36
Take B2: in data set [1], the binding result is “binds”.

B3: octanoyl-AcpP (E. coli acyl carrier protein with octanoyl-4'-phosphopantetheine) (natural protein)
chain: STIEERVKKIIGEQLGVKQEEVTNNASFVEDLGADSLDTVELVMALEEEFDTEIPDEEAEKITTVQAAIDYINGHQA
modifications: octanoyl chain on the PPant arm attached to S36
B3: the binding result in data set [1] is reported as “binds”.

In general, stoichiometry N refers to the number of molecules, sites or subunits per partner or assembly.
